Results taken from the supplement of paper PMC12783771.
± gives the standard deviation of the averaged measurements.

B1: library; numbered along this chain (parent)
chain: MNIQIGELAKRTACPVVTIRFYEQEGLLPPPGRSRGNFRLYGEEHVERLQFIRHCRSLDMPLSDVRTLLSYRKRPDQDCGEVNMLLDEHIRQVESRIGALLELKHHLVELREACSGARPAQSCGILQGLSDCVCDTRGTTAHPSD

Legend:
[1] = variants of: B1; experiment: sfGFP reporter fluorescence (15 h) (µM FITC); higher = higher leak; conditions: library round: Round 0; ligand: none
Summary of the method: (§1)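 An Echo normalized PCR-made linear PbrR templates to 5 nM and assembled 1 μL reactions in BL21 Star (DE3) PANOx-SP extract carrying the pPbrR-sfGFP reporter plasmid and 30 μg/mL GamS. Reactions received 1 µM lead chloride, 30 µM zinc acetate or no metal and stood 15 hr at 30 °C. Fluorescence at 485/528 nm (Synergy Neo2) was converted with FITC standard curves made in 50 mM sodium borate pH 8.5. Endpoint sfGFP signal is given in µM FITC, from up to three biological replicates.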

[2] = variants of: B1; experiment: sfGFP reporter fluorescence (15 h) (µM FITC); higher = stronger transcriptional activation; conditions: library round: Round 0
Summary of the method: as §1

## MNIQIGELAKRTACPVVTIRFYEQEGLLPPPGRSRGNFRLYGEEHVERLQFIRHCRSLDMPLSDVRTLLSYRKRPDQDCGEVNMLLDEHIRQVESRIGALLELKHHLVELREACSGARPAQSCGILQGLSDCVCDTRGTTAHNSD
[1]
  sfGFP reporter fluorescence: 0.0568 ± 0.0015
[2]; ligand: 1 µM Pb
  sfGFP reporter fluorescence: 0.0718 ± 0.0057
[2]; ligand: 30 µM Zn
  sfGFP reporter fluorescence: 0.865 ± 0.12

## MNIQIGELAKRTACPVVTIRFYEQEGLLPPPGRSRGNFRLYGEEHVERLQFIRHCRSLDMPLSDVRTLLSYRKRPDQDCGEVNMLLDEHIRQVESRIGALLELKHHLVELREACSGARPAQSCGILQGLSDCVCDTRGTTAHSSD
[1]
  sfGFP reporter fluorescence: 0.0566 ± 0.0023
[2]; ligand: 1 µM Pb
  sfGFP reporter fluorescence: 0.07568 ± 0.00026
[2]; ligand: 30 µM Zn
  sfGFP reporter fluorescence: 0.842 ± 0.05

## MNIQIGELAKRTACPVVTIRFYEQEGLLPPPGRSRGNFRLYGEEHVERLQFIRHCRSLDMPLSDVRTLLSYRKRPDQDCGEVNMLLDEHIRQVESRIGALLELKHHLVELREACSGARPAQSCGILQGLSDCVCDTRGTTAHRSD
[1]
  sfGFP reporter fluorescence: 0.05864 ± 0.00052
[2]; ligand: 1 µM Pb
  sfGFP reporter fluorescence: 0.0806 ± 0.0052
[2]; ligand: 30 µM Zn
  sfGFP reporter fluorescence: 0.983 ± 0.14

## MNIQIGELAKRTACPVVTIRFYEQEGLLPPPGRSRGNFRLYGEEHVERLQFIRHCRSLDMPLSDVRTLLSYRKRPDQDCGEVNMLLDEHIRQVESRIGALLELKHHLVELREACSGARPAQSCGILQGLSDCVCDTRGTTAHVSD
[1]
  sfGFP reporter fluorescence: 0.0559 ± 0.0013
[2]; ligand: 1 µM Pb
  sfGFP reporter fluorescence: 0.0726 ± 0.0026
[2]; ligand: 30 µM Zn
  sfGFP reporter fluorescence: 0.757 ± 0.14

## MNIQIGELAKRTACPVVTIRFYEQEGLLPPPGRSRGNFRLYGEEHVERLQFIRHCRSLDMPLSDVRTLLSYRKRPDQDCGEVNMLLDEHIRQVESRIGALLELKHHLVELREACSGARPAQSCGILQGLSDCVCDTRGTTAHTSD
[1]
  sfGFP reporter fluorescence: 0.05772 ± 0.00026
[2]; ligand: 1 µM Pb
  sfGFP reporter fluorescence: 0.0713 ± 0.0065
[2]; ligand: 30 µM Zn
  sfGFP reporter fluorescence: 0.821 ± 0.11

## MNIQIGELAKRTACPVVTIRFYEQEGLLPPPGRSRGNFRLYGEEHVERLQFIRHCRSLDMPLSDVRTLLSYRKRPDQDCGEVNMLLDEHIRQVESRIGALLELKHHLVELREACSGARPAQSCGILQGLSDCVCDTRGTTAHWSD
[1]
  sfGFP reporter fluorescence: 0.0588 ± 0.0029
[2]; ligand: 1 µM Pb
  sfGFP reporter fluorescence: 0.0861 ± 0.0026
[2]; ligand: 30 µM Zn
  sfGFP reporter fluorescence: 0.751 ± 0.11

## MNIQIGELAKRTACPVVTIRFYEQEGLLPPPGRSRGNFRLYGEEHVERLQFIRHCRSLDMPLSDVRTLLSYRKRPDQDCGEVNMLLDEHIRQVESRIGALLELKHHLVELREACSGARPAQSCGILQGLSDCVCDTRGTTAHQSD
[1]
  sfGFP reporter fluorescence: 0.0566 ± 0.0039
[2]; ligand: 1 µM Pb
  sfGFP reporter fluorescence: 0.0735 ± 0.0049
[2]; ligand: 30 µM Zn
  sfGFP reporter fluorescence: 0.871 ± 0.098
